Results as given in the RNAGym collection of RNA variant scans (doi:10.1073/pnas.2313332121).

B1: TPR t1 (parent)
chain: GACCAAUCUGCCCUCAGAGCUCGAGAACAUCUUCGGAUGCAGAGGAGGCAGGCUUCGGUGGCGCGAUAGCGCCAACGUCCUCAACCUCCAAUGCAUCCCACCACAUGAUGAUGCCUGAAGAGCCUUGGUUUUUUG

Variants of: B1
Test: polymerase ribozyme fitness, log enrichment relative to wild type (log ratio); higher = more active; in vitro selection for triplet polymerase activity
In short: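 One round of in vitro selection, in triplicate, was applied to PCR-built, transcribed mutant libraries of each subunit of a heterodimeric triplet polymerase ribozyme. The steps were annealing with a biotinylated primer, partner subunit and triplets, incubation frozen at −7 °C, gel excision of extended constructs, streptavidin-bead capture and RT-PCR. Fitness is the logarithm, base 2, of genotype enrichment over wild-type enrichment from inverse-variance-weighted replicate averages of Illumina-sequenced inputs and outputs, keeping genotypes with ≥10 input reads and ≥1 read per output.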

In order of falling “polymerase ribozyme fitness (log ratio)” value:
1. C40U C53A C73A C104U C123G  1.24
2. C40G U112C  0.984
3. C40U C53A C73A C104U  0.971
4. C40U G63C A121C  0.618
5. A41G G48U U112C  0.49
6. C40U A41G G44A U59G G60U U112A  0.462
7. A41G U55G A74G  0.0435
8. C40U C88A C101A A121U  -0.199
9. C40U C53U C72A C97U  -0.251
10. A41G U78C C82A  -0.297
11. A41U A83U U87G U92A  -0.357
12. C40U U131A  -0.601
13. C40G U133G  -0.607
14. A41G C53U  -0.653
15. A41G U55A C56U C72G A118U  -0.698
16. C40U G93A U96G  -0.786
17. C40U A84C  -0.985
18. A41G U55A G58C G120U  -0.997
19. A41C G45U G69U C124A U126G  -1.04
20. A41C U78C C86A U106A  -1.09
21. A41U C53U  -1.15
22. A41C U133G  -1.16
23. C40G U125A  -1.17
24. C40U G60U C94A C101G U106A  -1.22
25. C40U G60C U96G A118G  -1.31
26. C40U A95C  -1.45
27. C40U G63C C80U  -1.53
28. A41C G61A G127A  -1.68
29. C40U G42U  -1.7
30. C40G G135U  -1.71
31. C40U G117U  -1.71
32. A41U A43U G113A C124A  -1.71
33. C40U A84U G117U C123G  -1.94
34. C40U U112A U116C  -1.95
35. A41U A84C  -1.99
36. C40U G42C  -2.23
37. A41U A46U C115A G120U C123G  -2.25
38. C40G G61U  -2.33
39. A41C C85U  -2.37
40. C40U C64U C85U A100G U106C U112C  -2.44
41. C40U C49A C89G  -2.46
42. C40U G45A U78G U81A  -2.5
43. C40U C97U C102A A111G  -2.88
44. C40U C56G C88G G93A  -2.89
45. A41U C73G  -3.06
46. A41G C49A G113C C124U  -3.06
47. C40U A41C G48U C56U G58C G63U  -3.13
48. A41G C104A G113C  -3.19
49. A41U A50U C53A  -3.22
50. C40U A43G U130A  -3.26
51. A41G A43U C70U A91C  -3.27
52. A41G A105U  -3.3
53. A41C G128C  -3.34
54. A41G C99U  -3.39
55. A41U C53G G113C  -3.41
56. C40U C85A G113C  -3.42
57. A41C A46U C70U  -3.44
58. A41C U55A G61U C102U  -3.48
59. C40G G69C C72U C89A  -3.57
60. C40U G113U U129C  -3.58
61. C40U G42A C56U C80U G120U U132C  -3.64
62. C40U C49A C79U G113U U125C  -4.03
63. A41G A83U C99U C115A U131G  -4.22
64. A41U A111U  -4.55
65. C40U C62G G110U  -4.6
66. A41C G63U G93C G117A U132A  -4.71
67. A41C G63A G69U G93C C101A  -4.78
68. A41C U81G C115A  -4.91
69. A41G C56G G69C U133G  -5.1
70. C40U C62U C73G C85G  -5.15
71. A41G U81A G117U  -5.27
72. A41U C49A A50U U55C G60U C115U  -5.28
73. A41C C98U G117A  -5.3
74. C40U A41C C79A U92A  -5.35
75. A41U C56G G69C U92A  -5.43
76. A41G G52A G61C C85U C124A U126C  -5.73
77. A41U C70G G120U  -6.06
78. C40U G60A A95U G117C A121C  -6.15
79. A41G U87G U109A C115U  -6.39
80. C40U G107U  -6.46
81. A41U C73G A103C  -6.66
82. A41U A46U C72U A83C U109A  -7.09
83. C40U A50U G52U U87A C102A U106A A118G  -7.38
84. C40U G63A C102G C114G G122A  -8.78
